Assay results reported in US20190330316A1 (PROTHENA BIOSCIENCES, published 2019).
Ends that are not written are not given here.

Columns and labels:
[1] = biological target: T1, biotinylated peptide spanning amino acid residues 55-69 of SEQ ID NO:3 (human, also: biotinylated, position not given here); assay: ELISA, biotinylated peptides on streptavidin plate
T1 peptide: SLEDEAAGHVTQARM
Description: (§1) A range of overlapping biotinylated peptides spanning the entire 383aa 4RON human tau protein were used for mapping the murine 16G7 antibody. Additional peptides were used to model potential post-translational modifications of the C- and N-terminal ends of the protein.
(§2) Biotinylated peptides were bound to separate wells of a streptavidin-coated ELISA plate. The plate was blocked and treated with murine 16G7, followed by incubation with a horseradish peroxidase-conjugated anti-mouse antibody. After thorough washing, OPD was applied to the plate and allowed to develop. The plate was read at 450 nm absorbance. Background subtraction was performed with absorbance values from wells containing no primary antibody, and a threshold for positive binding was set to 0.2 absorbance units.

[2] = biological target: T2, biotinylated peptide spanning amino acid residues 64-78 of SEQ ID NO:3 (human, also: biotinylated, position not given here); assay: ELISA, biotinylated peptides on streptavidin plate
T2 peptide: VTQARMVSKSKDGTG
Description: as §1, §2

[3] = biological target: T3, 4R0N human tau (383 amino acids) (human, UniProt P10636 1-758, radio-iodinated (125I) in the precipitation screen); assay: precipitation of 125I-labeled tau by hybridoma supernatants
T3 construct: Purified from SF9 cells infected with a tau baculovirus construct; also called 4RON human tau; 4R0N tau
T3 sequence (P10636 other isoform, or with tags, fused parts or gaps limits assumed): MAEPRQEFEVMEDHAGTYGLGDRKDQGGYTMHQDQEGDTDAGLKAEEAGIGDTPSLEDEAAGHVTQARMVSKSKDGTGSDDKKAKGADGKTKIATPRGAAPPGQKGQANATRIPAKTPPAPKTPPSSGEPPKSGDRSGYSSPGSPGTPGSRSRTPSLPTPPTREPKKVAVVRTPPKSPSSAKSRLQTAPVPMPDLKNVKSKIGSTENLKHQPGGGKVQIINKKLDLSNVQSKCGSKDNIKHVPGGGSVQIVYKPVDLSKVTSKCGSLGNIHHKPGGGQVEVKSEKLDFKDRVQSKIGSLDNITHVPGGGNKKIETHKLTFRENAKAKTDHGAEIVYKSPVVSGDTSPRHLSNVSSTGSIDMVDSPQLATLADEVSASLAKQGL
Description: Monoclonal antibody 16G7 was prepared according to a modification of the method of Kohler and Milstein (G. Kohler and C. Milstein (1975) Nature 256:495-497). Human tau containing all 4 microtubule binding repeats, and lacking the N-terminal splice variants (4R0N tau, 383 amino acids) was used in all injections and screening assays. Tau was purified from SF9 cells infected with a tau-containing baculovirus construct (J. Knops et al. (1991) J Cell Biol 115(5):725-33). Six week old ALI mice were injected with 100 μg of purified tau at two week intervals. Tau was emulsified in complete Freund's adjuvant for the first immunization and in incomplete Freund's adjuvant for all subsequent immunizations. Serum samples were taken three days after the third injection to assess the titer of these animals. The highest titer mouse was injected intravenously with 100 μg of tau in 500 μL of PBS two weeks after receiving its third injection. The myeloma fusion occurred three days later using SP2/0 as the fusion partner. Supernatants from wells containing hybridoma cells were screened for their ability to precipitate ¹²⁵I-labeled tau. Tau was radio-iodinated using immobilized glucose oxidase and lactoperoxidase according to the manufacturer's instructions (Bio-Rad). […] The isotypes of 16G7 was determined to be gamma 1 kappa.

binding result [1]: binds
binding result [2]: binds
binding result [3]: binds
B1: murine 16G7 monoclonal antibody (antibody, V domains shown)
VH: QVQLQQPGSVLVRPGASVKLSCKASGYTFTSSWIHWAKQRPGQGLEWIGEIYPNSGNTNYNEKFKGKATLTVDISSSTAYVDLTSLTSEDSAVYYCARLGWLIPLDYWGQGTTLIVSS
VL: DIVLSQSPSSLAVSVGEKVTMSCKSSQSLLDGNDQKNYLAWYQQKPGQSPKLLMYWASTRESGVPDRFTGSGSGTDFTLTISSLKAEDLAVYYCQQFYDYPWTFGGGTKLEIKR
notes: also called mouse 16G7; m16G7
